# Experimental data published in patent publication US11213565B2, “Protein P8 derived from lactic acid bacteria and its use as anti-cancer agent” (CELL BIOTECH CO., LTD., priority 2016, dated 2022).
# Assays:
# [1] = tested on: Colorectal cancer DLD-1 cells; assay: LIVE/DEAD viability/cytotoxicity staining of DLD-1; format: cell-based, human; details: 1 μg/ml or 10 μg/ml, 24 to 48 hours
# Method: (§1) Colorectal cancer DLD-1 cells were cultured in a 6-well plate at a density of 1.5×10^6 cells/well, and a P8 protein of the present invention was added thereto at a concentration of 1 μg/ml or 10 μg/ml. Next, the cells were incubated for 24 to 48 hours, and then washed twice with phosphate buffered saline and treated with 1 ml of a LIVE/DEAD viability/cytotoxicity staining kit, followed by incubation for 20 to 40 minutes. By the staining, living cells were stained green, and dead cells were stained red. The cells were observed under a fluorescent microscope, and the degree of inhibition of viability thereof was analyzed.
# as §1, with “and the” for “and a”, “of Example 1” for “of the present invention”, “μg/ml. Each well was” for “μg/ml. Next, the cells were”, “staining, live” for “staining, living”
# [2] = tested on: human colorectal cancer cell line (DLD-1) xenograft; assay: Colorectal cancer xenograft model, tumor volume; format: in vivo, nude mice
# Method: The human colorectal cancer cell line (DLD-1) was transplanted subcutaneously into nude mice, thereby constructing xenograft models. Using the xenograft models, the anticancer activity of the P8 protein of Example 1 was evaluated.
# First, for construction of colorectal cancer xenograft models, DLD-1 cells were transplanted subcutaneously into nude mice at a concentration of 1×10^7 cells/100 μl. 10 to 15 Days after the transplantation, the transplanted state of the tumor cells was checked, and mice showing a stable transplanted state were continuously observed. Before tumor's central necrosis occurred, mice showing rapid tumor growth due to supply of sufficient blood were selected, and tumor tissues were collected therefrom. Of the collected tumor tissue, the outer portion in which rapid cell division mainly occurred was cut into a predetermined size (3×3×3 mm), thereby constructing a tumor fragment. Then, the tumor fragment was placed on the tip of a puncture needle (Trocar), and the anterior side of the left rear leg of each animal was incised about 4 mm. The prepared puncture needle was inserted through the incision such that the tip reached the interbody side on the rear side of the left front leg. […] The position of the tumor fragment was determined by touching the skin with hand. […]
# During drug administration, the tumor size was measured using Vernier calipers once every two days. […]
# [3] = tested on: NIH3T3 cells (mouse embryonic fibroblast cells); assay: Cytotoxicity assay (WST-8) in NIH3T3; format: cell-based; details: 0.39 μg/ml to 100 μg/ml, 24 hours
# Method: In order to examine whether the P8 protein of Example 1 is cytotoxic, a cytotoxicity assay was performed using the P8 protein, highly expressed in NIH3T3 cells (mouse embryonic fibroblast cells), and BSA (bovine serum albumin) as a […] control.
# First, NIH3T3 cells were cultured in a 96-well plate at a density of 1×10^4 cells/well, and each of BSA and the highly expressed and purified P8 protein was added thereto at a concentration of 0.39 μg/ml to 100 μg/ml. Each well was incubated for 24 hours, and then treated with 100 of a cell survival rate measurement kit (Dojindo Cell count kit WST-8), followed by incubation for 2 hours. The absorbance of each well at 450 nm was measured using a microplate reader (Amersham, Biorad, USA, Japan), and based on the measured values, cell survival rates were calculated.
# [4] = tested on: Colorectal cancer DLD-1 cells; assay: Scratch assay, migration of colorectal cancer cells; format: cell-based, human; details: 1 μg/ml daily
# Method: Colorectal cancer DLD-1 cells were treated daily with 1 μg/ml of the P8 protein of Example 1 for 1, 3 or 7 days, and then dispensed into each well of a 6-well plate.
# The dispensed DLD-1 cells were cultured overnight, and then the plate having the cells cultured thereon was scratched with a 200 μl tip. To remove suspended material resulting from the scratch, the plate was washed twice with PBS, and then additionally incubated for 24 hours.
# HT-29 cell line = assay: Cell survival rate (WST-8) in HT-29; format: cell-based; details: 0.39 μl/ml to 100 μl/ml, 24 hours
# Method: (§2) Each of the colorectal cancer cell line DLD-1 and the HT-29 cell line was cultured in a 96-well plate at a density of 1×10^4 cells/well, and the P8 protein of Example 1 was added thereto at a concentration of 0.39 μl/ml to 100 μl/ml. As a negative control, 0.1% PBS buffer used in protein purification was used. The cells were incubated for 24 hours, and then each well was treated with 100 of a cell survival rate measurement kit (Dojindo Cell count kit WST-8) and incubated for 2 hours. The absorbance of each well at 450 nm was measured using a microplate reader (Amersham, Biorad, USA, Japan), and based on the measured values, cell survival rates were calculated.
# [5] = tested on: colorectal cancer cell line DLD-1; assay: Cell survival rate (WST-8) in DLD-1; format: cell-based, human; details: 0.39 μl/ml to 100 μl/ml, 24 hours
# Method: Colorectal cancer DLD-1 cells were cultured in a 96-well plate at a density of 1×10^4 cells/well, and each of active sites 1 to 3 (SEQ ID NOs: 8 to 10) of Example 1-3 was added thereto at a concentration of 10 μg/ml. As a negative control, 0.1% PBS buffer used in protein purification was used. The cells were incubated for 24 hours, and then each well was treated with 100 of a cell survival rate measurement kit (Dojindo Cell count kit WST-8) and incubated for 2 hours. The absorbance of each well at 450 nm was measured using a microplate reader (Amersham, Biorad, USA, Japan), and based on the measured values, cell survival rates were calculated.
# as §2
molecule,measurement,setting,value
"P8 protein: 8 KDa protein fragment extracted from Lactobacillus rhamnosus, amino acid sequence SEQ ID NO: 2 (protein, listed as Lactobacillus rhamnosus) MATVDPEKTLFLDEPMNKVFDWSNSEAPVRDALWDYYMEKNSRDTIKTEEEMKPVLDMSDDEVKALAEKVLKK",dependence of viability on concentration or time of treatment,[1],decreased as the concentration or time of treatment with the P8 protein increased
same,viability of the cells compared to negative control,[1]; fluorescent microscope,decreased
same,cancer growth inhibitory effects compared to conventional anticancer agents,"[2]; 10 mg/Kg or higher, intraperitoneally twice a week for 4 weeks, vs 5-fluorouracil 10 mg/Kg, oxaliplatin 4 mg/Kg",superior
same,cancer growth compared to negative control group,"[2]; 1, 5 and 10 mg/Kg intraperitoneally twice a week for 4 weeks",significantly inhibited
same,cytotoxicity (cell survival rate compared with BSA),[3],not cytotoxic
same,decrease of migration rate of the cells compared to untreated control,[4]; 1-day treatment,15.7%
same,decrease of migration rate of the cells compared to untreated control,[4]; 3-day treatment,45.9%
same,decrease of migration rate of the cells compared to untreated control,[4]; 7-day treatment,58.3%
same,cell growth inhibitory effect,HT-29 cell line,about 20%
same,cell growth inhibitory effect,[5],about 20%
